Measurements taken from the supplement of paper PMC12042874.
± gives the uncertainty stated by the source.

Assay: amyloid nucleation score (Sup35N fusion, yeast selection) (log enrichment); library NNK2; higher = more nucleation; inactive = no reads after selection
Summary of the method: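 The nucleation score, computed with DiMSum, is the log enrichment of output over input reads, centred on the mode score of non-aggregating sequences. Sequences with under 100 input reads were dropped. Reads were generated by Illumina sequencing of plasmid inserts from psi-negative yeast with Sup35N fused to peptides of 20 random codons, induced with 100 μM copper sulfate for 24 hours and grown 7 days at 30°C on medium lacking adenine and uracil.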

Point of comparison: PDFSDFITHLIGFRSMGTGG, amyloid nucleation score -0.694 ± 1.1. Against it:
- EIHCPMITMISVGRDSMKFN — higher, 0.996 ± 0.41
- AFNCT — within error, -0.684 ± 0.78
- RTAINESCQDEMG — higher, 5.44 ± 0.073
- TFMWVDSMP — within error, -0.525 ± 0.48
- HNNGRSFYEKAMVDLGGAWL — within error, 0.263 ± 0.64
- PILEIYVCGSLMYIFNITIV — higher, 6.691 ± 0.033
- KRDFPISATSRLCVAFFFIY — within error, -0.975 ± 0.38
- VCNRPI — within error, -0.78 ± 0.26
- SNYVSTHRIWFGYSWCKQEK — higher, 4.24 ± 0.13
- YSFFCSMILYPIHDNVGWSF — higher, 4.86 ± 0.088
- GYCSDGWFAECTEWEAPVSR — within error, 0.343 ± 0.64
- TKQPSFTCPGLSSRILRRLK — higher, 3.04 ± 0.18
- VSQSDMDLHWLVYRVYWYVF — within error, -0.893 ± 0.44
- RVMSVCGSYVNRGEADVVSG — within error, 0.364 ± 0.18
- WDSIVDVSSKIAFFRMNDSS — within error, -1.41 ± 0.62
- TRMMCKRFRIML — within error, 0.544 ± 0.49
- TIWRCFLT — within error, 0.685 ± 0.33
- SFYVIRVGSLPFRS — higher, 3.25 ± 0.075
- WYSMISLSRTNIYRMFYVPV — within error, -0.453 ± 0.53
- RGRLMCSYLILNFCRSG — higher, 3.04 ± 0.12
- VRGRVAHRRMGSTFVISAES — within error, 0.266 ± 0.74
- RRLLLLGSFWGSVHQHVTSS — within error, -0.207 ± 0.4
- CFKFRYRLGGW — higher, 4.93 ± 0.05
- TTTWGENLFASNYLLSKTAG — within error, -0.088 ± 1.1
- HSSLFSYREQLYTSFCNIGM — higher, 4.99 ± 0.067
- CCNIGHNVMNY — higher, 2.9 ± 0.11
- IQLIRHCSSLNRTYQVSVSR — within error, 0.364 ± 0.3
- KDGSPYKYLA — within error, -0.554 ± 0.63
- LYEYHHGFVCQRVCGAIVGR — higher, 1.23 ± 0.43
- YITAGFKESTSGQRQLRSWL — higher, 2.08 ± 0.083
- HLPVSLFYRDS — within error, 0.165 ± 0.41
- MVPVFTGWRICVGGNCLARR — within error, -0.162 ± 0.34
- KAAVMRHMSCCCYYHP — within error, 0.845 ± 0.66
- AYMVASMESMDACRVLRLPS — higher, 0.87 ± 0.21
- TTVKYG — within error, 0.553 ± 0.22
- MLGCCPRVSVVPNTV — within error, -0.467 ± 0.45
- RNHFLLCFLRCNEEYAQVRG — higher, 3.69 ± 0.059
- RRKVCYTSQVRRLVNQRNVS — within error, -1.11 ± 0.34
- FLRNWGTAWLVGFNSAKFIC — within error, -0.955 ± 0.63
- CSAITEGCKGFVHDVSGVML — within error, -0.27 ± 0.56
- GNTGSGSDSKLYLAMP — within error, -0.076 ± 0.79
- MNYLCASSGVLVKN — within error, -0.055 ± 1.1
- CWGHS — within error, -0.792 ± 0.79
- YGTCFS — within error, 0.191 ± 0.47
- VTNVCGWRTEGWYDPGSAKT — higher, 1.13 ± 0.33
- VVQGVIFNGDMLNRGSLGKI — within error, -0.129 ± 0.79
- NRAFLMSYAPRRHFGAMSKA — higher, 3.51 ± 0.073
- DNCIDSCCYPLVSRVLEL — within error, 0.354 ± 0.64
- VFIFLGLPLFPMITSIDLGY — higher, 2.28 ± 0.13
- VVILFVLGLVNPELS — within error, 0.649 ± 0.55
- SPFFVMLIITFTRMVEDLRM — within error, -0.683 ± 1.1
- MELRFDCF — within error, 0.089 ± 1.1
- CMFFCYYLWMMRMVWSVTWS — within error, -0.589 ± 0.53
- DNWVLYNCFTTSEKLSM — within error, 0.553 ± 0.19
- SATRDYHRLWCVVRLLLNAA — within error, 0.342 ± 0.46
- IRCQSVRDIGLYFDLDWVEK — higher, 2.28 ± 0.085
- IQWFIWN — higher, 6.806 ± 0.027
- CRIQPDFRFMCLRNCGLESR — within error, -0.855 ± 1
- QGYLLFN — within error, 0.467 ± 0.19
- YSRWRSLCTGAAFPGFWLNT — higher, 1.96 ± 0.14
- MCPLT — higher, 0.638 ± 0.17
- GGLIE — within error, -0.817 ± 1.1
- SSDNTQYTETRYSYGFLIKL — within error, 0.776 ± 0.56
- YVCLFEFVMVCCDFTLFCKV — within error, 0.585 ± 0.8
- VWVCSRTGQSQYIISYTALW — higher, 1.65 ± 0.2
- AYYALCL — within error, -0.92 ± 1.1
- CDGSGCTDFVVCLHK — within error, -0.195 ± 0.31
- FKLFSFQVLYCSFDPCMHYT — within error, -1.33 ± 0.62
- NPFLFAYANYLLLMCIGRVY — within error, -0.044 ± 0.61
- TNRLMVEVALIFRSINCVNR — within error, -0.561 ± 0.38
- KDSITAWCFVVLSVMTRVEY — within error, -0.733 ± 1.1
- PRSVVPYR — within error, 0.5 ± 0.31
- IGRCDELGRCRTRARACSGL — higher, 7.78 ± 0.084
- MWFWTLCIF — higher, 8.025 ± 0.027
- DKWLWEL — within error, 0.575 ± 0.32
- ECSGEHASVQVSTGLGTDVQ — higher, 2.8 ± 0.065
- LRVCNFCTFHFVWWS — higher, 4.8 ± 0.06
- FIIMFIRLLSW — higher, 1.12 ± 0.14
- HLVMCMARVGTTVNLMSHQT — higher, 6.304 ± 0.057
- CDSRCRYLAEYRFI — within error, 0.151 ± 0.27
- SGSHVYFKSCTGLKLPIVLG — higher, 4.498 ± 0.04
- DGSSDRQGVKFFVDTSFLSR — within error, -0.593 ± 0.48
- FYVVALGYKIVLCTMFYMLE — within error, -1.16 ± 0.31
- HFSVMCTTRSKRLSIKPEWR — higher, 4.41 ± 0.097
- PDVVNNGGSYHLHWGCWCW — higher, 3.25 ± 0.14
- TFAIIRIII — higher, 1.37 ± 0.33
- SSLYHLAGHGTAGSRLTSGR — within error, 0.511 ± 0.41
- VEVKNRYRVRKLLCGLLRIR — within error, 0.799 ± 0.74
- IALKFFH — higher, 0.882 ± 0.3
- FSKHCYIIMYDISRSKTSIF — within error, -0.525 ± 1.1
- GSLMRTFHILSIAHSTSWCM — within error, 0.381 ± 0.19
- EVILTLIRYNV — higher, 4.21 ± 0.1
- WKVCLVYDKTFWHVEVEGES — within error, 0.042 ± 0.8
- TYGLWRFGTRGKDEFKSPNR — higher, 6.16 ± 0.058
- KKNSAVHVYF — within error, -1.01 ± 1.1
- STKSSVAVGSDSWNRSHRQV — higher, 0.773 ± 0.22
- NRYTNGPNF — within error, -0.106 ± 0.29
- VWHLLRKSFSFR — within error, 0.619 ± 0.8
- CDVLRY — within error, -0.825 ± 0.48
- YSEQNKWSRFVTDGGNLV — within error, -0.802 ± 0.61
- FFFRSHKTIILVAKG — within error, -0.104 ± 0.2
- TLKLALEFLNEIYEEPVKCR — within error, -1.36 ± 0.48
- TSGQHD — within error, -0.133 ± 0.61
- KDLPTSYIYMFDY — within error, -1.2 ± 0.78
- TMWRVIGSVYFVKFFSATLG — within error, -0.07 ± 0.43
- GEMYV — within error, -0.31 ± 1
- VWDLMLKKAFTNSSNCYSVA — higher, 1.19 ± 0.19
- EFWPKELIRSDDSASFNGMS — within error, 0.007 ± 1.1
- FTCNACGYERSSVAYRNNPL — within error, -0.22 ± 1.1
- VSVARSSFARKDYCEFFRPG — higher, 1.17 ± 0.28
- NGTCLYAYIMIRLISNEFSR — within error, -0.417 ± 0.42
- NRSMSISGMTGYEQLKRHGT — within error, 0.023 ± 0.27
- TSSMTNERDNLILV — within error, -0.187 ± 0.42
- CMQTSDEPLRHGP — within error, -0.06 ± 0.79
- WLTSS — within error, -0.173 ± 0.54
- TQLASIQPSVPCYIVYTVGL — higher, 3.01 ± 0.085
- DGNNVVIWLLWLSANMTGAG — higher, 1.97 ± 0.13
- NNRVVFTGRFL — within error, -1.45 ± 0.47
- WGITGLVCV — within error, -0.674 ± 0.76
- NLNFPMRSSILDCAGDNVRR — within error, 0.49 ± 0.8
- YLRRL — within error, -0.775 ± 0.61
- GYHDRLSPSQTLPPTRNVLC — within error, 0.312 ± 0.8
- REWWYKKALPQCENTIGVGQ — within error, 0.721 ± 0.47
- LGGSSENYGVDCNYYPEMWG — within error, -1.24 ± 0.54
- TMLETLRARADLMCQVWYSV — higher, 0.964 ± 0.4
- FWCCANRSLVISLI — within error, -0.907 ± 0.4
- EFYFSVRPVKLCFGLNVTNN — within error, -0.146 ± 1
- GRCPVSRVHGIQRSGDGSVI — within error, -0.383 ± 1.1
- FMITWGINRS — higher, 4.02 ± 0.043
- LKVRKLSLARCVGIHTLQT — higher, 4.4 ± 0.06
- VFARWFYAADGYIARLHVHT — within error, 0.133 ± 0.5
- ILGLPSINSSISLHKTITDP — higher, 2.86 ± 0.056
- ASDPIMTVSRPIPMHPLY — within error, -0.172 ± 0.76
- ETAQLWYSRVACCKKRVVYG — within error, 0.594 ± 0.47
- GSQYRVWISS — within error, -0.214 ± 0.55
- KTFFVYIRSNYCV — within error, -1.24 ± 0.62
- MVCRFGILSYVMWRF — within error, 0.83 ± 0.45
- SWSWSMGGNFRMVWSL — higher, 5.33 ± 0.06
- MVVEFCYVRYRAN — within error, 0.716 ± 0.6
- FMEYCSVLLFCLVMARLSGS — within error, -0.012 ± 1.1
- WWFYAYVYWRW — within error, -0.403 ± 0.43
- LRFRKMAKKCNYVVRVVLGF — within error, -0.273 ± 0.29
- SVWDYC — within error, -0.053 ± 0.39
- LIMYR — within error, -0.83 ± 0.3
- RVRIGQAGVWAPRPKELTLW — within error, 0.679 ± 0.81
- DVVILMF — within error, 0.639 ± 0.5
- AFTACRYMVSPFFSLMFSTS — within error, 0.265 ± 1.1
- KLPFELKSDDFTCFNWANSR — within error, -0.097 ± 1.1
- VDYTVFGGPTQRIGER — within error, 0.073 ± 0.3
- SVVVWDSSPCIGGSRVADS — within error, 0.56 ± 0.57
- IDKSG — higher, 2.44 ± 0.14
- ISFNQHTLSYKNVIFNCAFE — higher, 4.16 ± 0.044
- QWIAGVYV — higher, 3.23 ± 0.048

With YIMTYDYVCKNVGWYFTRC the amyloid nucleation score was “inactive”.
For YFSDLDAL, the amyloid nucleation score was “inactive”.
In the case of FYKLNGKNWSRVKVPHSWLF, the amyloid nucleation score is reported as “inactive”.
For WVYKWIWRLFDGFHHQLMLS, the amyloid nucleation score was “inactive”.
For CECVFFVQGVLRVGVLYDKF, the amyloid nucleation score was “inactive”.
With GPWGGWSVT the amyloid nucleation score was “inactive”.
For WNMMPRASEQFYYRL, the amyloid nucleation score was “inactive”.
With VFGSYCGSVPRAAKFAMT the amyloid nucleation score was “inactive”.
In the case of LGGVSSHSELMPRVKVNWLT, the amyloid nucleation score is reported as “inactive”.
With QRVFDLKSGFGLNRDILVCL the amyloid nucleation score was “inactive”.
For TPNQGNPSGYFFDNSFMKPF, the amyloid nucleation score was “inactive”.
In the case of LLLSRGFMGVSKRSMVYRRV, the amyloid nucleation score is reported as “inactive”.
With YGWFFVYDEVLLFISYSNVV the amyloid nucleation score was “inactive”.
With YMRVLGVDGHIRCVWLD the amyloid nucleation score was “inactive”.
In the case of MSTMINSPPSSG, the amyloid nucleation score is reported as “inactive”.
In the case of KFWDSDVGVGGHHV, the amyloid nucleation score is reported as “inactive”.
With GQLSFCGVVYDISRQEPTIF the amyloid nucleation score was “inactive”.
In the case of MYILMKDIRDFIFSSRPIIS, the amyloid nucleation score is reported as “inactive”.
With RHLVIYRLVNCKSARLSRTL the amyloid nucleation score was “inactive”.
